Legend:
α-synuclein (human) [1] = target: α-synuclein (human) (UniProt P37840)
α-synuclein (human) [2] = target: α-synuclein (human) (UniProt P37840); remark: listed apart in the source
α-synuclein (human) [3] = target: α-synuclein (human) (UniProt P37840); remark: listed apart in the source
α-synuclein (human) [4] = target: α-synuclein (human) (UniProt P37840); remark: listed apart in the source

In the case of “DNAJB6b (from UniProt O75190-2 1-241) (natural protein)”, the apparent solubility of α-syn (free monomer in supernatant by HPLC-MS) with 7.8 to 62.5 nM JB6, pH 5.5 (0.8 μM for α-syn alone; 125 nM JB6 not at equilibrium, 16 μM) (α-synuclein (human) [1]) is reported as 7.7 μM, the half-time of loss of free α-syn monomer by 1D 1H NMR, 20 μM α-syn with 250 nM JB6 (4.9 h without JB6), pH 5.5, 37 °C (α-synuclein (human) [2]) is reported as 35 h and the apparent solubility of α-syn (free monomer by 1D 1H NMR at about 300 h) with 250 nM JB6, pH 5.5 (α-synuclein (human) [3]) is reported as 0.47 μM. It also gave an apparent solubility of α-syn (free monomer in supernatant by HPLC-MS) with 0.12 and 2 μM JB6, pH 4.5 (α-synuclein (human) [4]) of 2.3 μM.
